Paper PMC9138527

What was measured:
Assay in all cases: EMSA
[1] = test system: Protamine-like proteins mixture (PL-II, PL-III, PL-IV), unexposed mussels (Mytilus galloprovincialis); settings: DNA (150 ng pGEM3 or 450 ng sperm DNA) plus PLs in ultrapure water, 30 uL, 5 min, room temperature, TBE to 1x added just before the run, 1% (plasmid) or 0.6% …
[2] = test system: Protamine-like proteins mixture (PL-II, PL-III, PL-IV), 100 nM Cr(VI)-exposed mussels (Mytilus galloprovincialis); settings: mussels exposed to 100 nM Cr(VI), DNA (150 ng pGEM3 or 450 ng sperm DNA) plus PLs in ultrapure water, 30 uL, 5 min, room temperature, TBE to 1x added just before the run, 1% (plasmid) or 0.6% …
[3] = test system: Protamine-like proteins mixture (PL-II, PL-III, PL-IV), 10 nM Cr(VI)-exposed mussels (Mytilus galloprovincialis); settings: mussels exposed to 10 nM Cr(VI), DNA (150 ng pGEM3 or 450 ng sperm DNA) plus PLs in ultrapure water, 30 uL, 5 min, room temperature, TBE to 1x added just before the run, 1% (plasmid) or 0.6% …
[4] = test system: Protamine-like proteins mixture (PL-II, PL-III, PL-IV), 1 nM Cr(VI)-exposed mussels (Mytilus galloprovincialis); settings: mussels exposed to 1 nM Cr(VI); saturation not reached; DNA (150 ng pGEM3 or 450 ng sperm DNA) plus PLs in ultrapure water, 30 uL, 5 min, room temperature; TBE to 1x added just before the run; 1% (plasmid) or 0.6% …
[5] = scale: wt/wt protein/DNA at almost complete saturation

Substance | binding signal ([1]; unexposed, scale: wt/wt protein/DNA at almost complete saturation) | binding signal [2, 5] | binding signal [3, 5] | binding signal (wt/wt protein/DNA at saturation) [1] | binding signal (wt/wt protein/DNA at saturation) [4] | binding signal (wt/wt protein/DNA at saturation) [2] | binding signal (wt/wt protein/DNA at saturation) [3]
sperm genomic DNA | 0.6 | 0.6 | 0.6 | – | – | – | –
pGEM3 plasmid | – | – | – | 0.8 | > 1.8 | 0.8 | 0.8
